The values below come from IntAct's records for PubMed 32296183.

The chains are these.
B1: Golgi SNAP receptor complex member 2 (Homo sapiens), O14653 (parent)
chain: MDPLFQQTHKQVHEIQSCMGRLETADKQSVHIVENEIQASIDQIFSRLERLEILSSKEPPNKRQNARLRVDQLKYDVQHLQTALRNFQHRRHAREQQERQREELLSRTFTTNDSDTTIPMDESLQFNSSLQKVHNGMDDLILDGHNILDGLRTQRLTLKGTQKKILDIANMLGLSNTVMRLIEKRAFQDKYFMIGGMLLTCVVMFLVVQYLT
partner: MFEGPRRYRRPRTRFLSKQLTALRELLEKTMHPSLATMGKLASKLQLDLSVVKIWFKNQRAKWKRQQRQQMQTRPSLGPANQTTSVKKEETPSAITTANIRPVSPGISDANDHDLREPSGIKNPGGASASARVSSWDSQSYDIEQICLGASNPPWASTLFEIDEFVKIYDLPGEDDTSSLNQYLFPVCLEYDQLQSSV
B2: Catenin alpha-3 (Homo sapiens), Q9UI47-2 (parent)
chain: MSAETPITLNIDPQDLQVQTFTVEKLLEPLIIQVTTLVNCPQNPSSRKKGRSKRASVLLASVEEATWNLLDKGEKIAQEATVLKDELTASLEEVRKESEALKVSAERFTDDPCFLPKREAVVQAARALLAAVTRLLILADMIDVMCLLQHVSAFQRTFESLKNVANKSDLQKTYQKLGKELENLDYLAFKRQQDLKSPNQRDEIAGARASLKENSPLLHSICSACLEHSDVASLKASKDTVCEEIQNALNVISNASQGIQNMTTPPEPQAATLGSALDELENLIVLNPLTVTEEEIRPSLEKRLEAIISGAALLADSSCTRDLHRERIIAECNAIRQALQDLLSEYMNNAGKKERSNTLNIALDNMCKKTRDLRRQLRKAIIDHVSDSFLDTTVPLLVLIEAAKNGREKEIKEYAAIFHEHTSRLVEVANLACSMSTNEDGIKIVKIAANHLETLCPQIINAALALAARPKSQAVKNTMEMYKRTWENHIHVLTEAVDDITSIDDFLAVSGMFLFF
partner: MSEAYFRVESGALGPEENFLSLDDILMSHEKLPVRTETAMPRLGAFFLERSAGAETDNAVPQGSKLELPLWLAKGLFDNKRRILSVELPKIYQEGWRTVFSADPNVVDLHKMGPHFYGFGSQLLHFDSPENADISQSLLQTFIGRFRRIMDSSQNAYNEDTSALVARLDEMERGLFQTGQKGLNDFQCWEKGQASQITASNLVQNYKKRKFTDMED
B3: Very-long-chain enoyl-CoA reductase (Homo sapiens), Q9NZ01 (parent)
chain: MKHYEVEILDAKTREKLCFLDKVEPHATIAEIKNLFTKTHPQWYPARQSLRLDPKGKSLKDEDVLQKLPVGTTATLYFRDLGAQISWVTVFLTEYAGPLFIYLLFYFRVPFIYGHKYDFTSSRHTVVHLACICHSFHYIKRLLETLFVHRFSHGTMPLRNIFKNCTYYWGFAAWMAYYINHPLYTPPTYGAQQVKLALAIFVICQLGNFSIHMALRDLRPAGSKTRKIPYPTKNPFTWLFLLVSCPNYTYEVGSWIGFAIMTQCLPVALFSLVGFTQMTIWAKGKHRSYLKEFRDYPPLRMPIIPFLL
partner: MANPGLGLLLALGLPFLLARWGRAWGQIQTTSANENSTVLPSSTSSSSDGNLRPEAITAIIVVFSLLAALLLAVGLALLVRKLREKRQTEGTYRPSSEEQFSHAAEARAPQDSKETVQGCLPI
B4: Golgi SNAP receptor complex member 2 (Homo sapiens), O14653 (parent)
chain: B1 chain
partner: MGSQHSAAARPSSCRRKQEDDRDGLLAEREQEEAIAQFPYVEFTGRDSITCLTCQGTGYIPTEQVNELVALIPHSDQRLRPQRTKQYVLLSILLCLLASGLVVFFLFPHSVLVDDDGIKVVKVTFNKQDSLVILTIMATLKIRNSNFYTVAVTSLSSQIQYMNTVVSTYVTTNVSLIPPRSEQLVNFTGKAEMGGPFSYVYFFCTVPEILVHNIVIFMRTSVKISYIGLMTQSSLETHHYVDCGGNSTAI
B5: Golgi SNAP receptor complex member 2 (Homo sapiens), O14653 (parent)
chain: B1 chain
partner: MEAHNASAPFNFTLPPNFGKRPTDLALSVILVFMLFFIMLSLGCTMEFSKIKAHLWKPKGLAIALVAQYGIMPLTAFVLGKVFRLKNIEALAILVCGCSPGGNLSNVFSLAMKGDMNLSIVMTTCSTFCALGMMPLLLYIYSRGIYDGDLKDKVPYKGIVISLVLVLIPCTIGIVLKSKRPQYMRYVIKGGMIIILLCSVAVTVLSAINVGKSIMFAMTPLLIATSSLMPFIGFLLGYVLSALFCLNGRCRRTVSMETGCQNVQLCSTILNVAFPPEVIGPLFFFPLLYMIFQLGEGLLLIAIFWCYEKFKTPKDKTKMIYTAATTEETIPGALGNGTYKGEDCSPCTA
B6: Catenin alpha-3 (Homo sapiens), Q9UI47-2 (parent)
chain: B2 chain
partner: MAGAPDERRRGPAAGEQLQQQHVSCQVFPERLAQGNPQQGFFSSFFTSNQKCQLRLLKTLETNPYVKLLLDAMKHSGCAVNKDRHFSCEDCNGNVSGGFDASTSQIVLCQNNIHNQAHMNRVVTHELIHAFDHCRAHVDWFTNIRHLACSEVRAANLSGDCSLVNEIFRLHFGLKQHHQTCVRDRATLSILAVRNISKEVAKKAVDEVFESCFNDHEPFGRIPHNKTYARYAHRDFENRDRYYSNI
B7: Golgi SNAP receptor complex member 2 (Homo sapiens), O14653 (parent)
chain: B1 chain
partner: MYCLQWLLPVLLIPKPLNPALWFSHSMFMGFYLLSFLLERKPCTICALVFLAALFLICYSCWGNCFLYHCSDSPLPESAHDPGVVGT
B8: Catenin alpha-3 (Homo sapiens), Q9UI47-2 (parent)
chain: B2 chain
partner: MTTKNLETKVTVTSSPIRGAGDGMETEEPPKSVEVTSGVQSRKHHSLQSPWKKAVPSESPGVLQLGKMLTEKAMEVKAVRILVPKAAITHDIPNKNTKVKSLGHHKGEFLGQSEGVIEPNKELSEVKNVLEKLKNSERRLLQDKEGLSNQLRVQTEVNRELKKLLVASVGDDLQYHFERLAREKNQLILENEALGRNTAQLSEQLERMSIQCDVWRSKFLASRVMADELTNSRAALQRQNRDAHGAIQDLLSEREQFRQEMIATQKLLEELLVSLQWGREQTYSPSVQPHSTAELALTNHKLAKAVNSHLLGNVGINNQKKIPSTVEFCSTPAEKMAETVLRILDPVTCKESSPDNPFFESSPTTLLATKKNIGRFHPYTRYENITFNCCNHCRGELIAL
B9: Golgi SNAP receptor complex member 2 (Homo sapiens), O14653 (parent)
chain: B1 chain
partner: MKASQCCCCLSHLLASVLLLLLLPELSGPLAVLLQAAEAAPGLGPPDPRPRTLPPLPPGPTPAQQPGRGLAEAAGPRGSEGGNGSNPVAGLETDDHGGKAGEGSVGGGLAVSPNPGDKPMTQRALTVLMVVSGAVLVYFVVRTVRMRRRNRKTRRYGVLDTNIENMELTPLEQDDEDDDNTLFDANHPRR
B10: Golgi SNAP receptor complex member 2 (Homo sapiens), O14653 (parent)
chain: B1 chain
partner: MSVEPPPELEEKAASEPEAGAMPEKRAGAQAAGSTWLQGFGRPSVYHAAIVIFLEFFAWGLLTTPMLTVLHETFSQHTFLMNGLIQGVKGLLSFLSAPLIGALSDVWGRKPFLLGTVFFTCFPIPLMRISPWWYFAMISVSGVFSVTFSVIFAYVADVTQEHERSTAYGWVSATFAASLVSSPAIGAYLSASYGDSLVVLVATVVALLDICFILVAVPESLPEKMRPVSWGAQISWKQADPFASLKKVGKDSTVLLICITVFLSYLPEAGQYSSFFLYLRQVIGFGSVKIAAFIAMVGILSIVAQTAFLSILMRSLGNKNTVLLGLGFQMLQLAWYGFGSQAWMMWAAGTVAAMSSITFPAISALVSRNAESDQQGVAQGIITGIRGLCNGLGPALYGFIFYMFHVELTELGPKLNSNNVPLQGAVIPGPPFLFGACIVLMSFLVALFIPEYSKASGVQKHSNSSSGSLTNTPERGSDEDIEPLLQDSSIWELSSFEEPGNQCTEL
B11: Catenin alpha-3 (Homo sapiens), Q9UI47-2 (parent)
chain: B2 chain
partner: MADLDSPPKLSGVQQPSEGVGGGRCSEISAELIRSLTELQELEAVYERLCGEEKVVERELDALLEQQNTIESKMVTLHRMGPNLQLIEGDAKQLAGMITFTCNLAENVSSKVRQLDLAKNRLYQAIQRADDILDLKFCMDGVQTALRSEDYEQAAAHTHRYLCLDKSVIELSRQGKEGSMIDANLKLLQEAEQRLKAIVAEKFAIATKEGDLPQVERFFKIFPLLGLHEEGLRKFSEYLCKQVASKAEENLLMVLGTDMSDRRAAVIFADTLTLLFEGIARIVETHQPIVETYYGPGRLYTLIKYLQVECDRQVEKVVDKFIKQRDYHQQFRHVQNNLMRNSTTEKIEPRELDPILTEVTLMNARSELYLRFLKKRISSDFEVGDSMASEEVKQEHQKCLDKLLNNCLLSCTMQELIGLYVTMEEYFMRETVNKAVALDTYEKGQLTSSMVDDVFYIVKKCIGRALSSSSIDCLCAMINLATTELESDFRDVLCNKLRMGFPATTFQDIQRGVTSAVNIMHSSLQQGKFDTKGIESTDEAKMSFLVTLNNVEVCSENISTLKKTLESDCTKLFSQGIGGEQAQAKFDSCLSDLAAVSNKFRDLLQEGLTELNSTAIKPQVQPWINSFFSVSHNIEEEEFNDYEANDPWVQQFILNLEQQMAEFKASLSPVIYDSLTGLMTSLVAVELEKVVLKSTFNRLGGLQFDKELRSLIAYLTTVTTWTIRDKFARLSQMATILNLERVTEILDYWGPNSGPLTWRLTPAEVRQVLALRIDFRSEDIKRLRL

The first assay covers variants of B1. The note with it: with leutx_human LEUTX.
Turning to G144W, the “effect of a mutation on the interaction” value is given as “with no effect”.

The variants in another assay derive from B2. The settings on record: with psf3_human GINS3, Q9BRX5.
On to V94D, for which the “effect of a mutation on the interaction” value is “disrupting interaction strength”.

Variants of B3 are the subject of a further assay. The note with it: with CRB3, Q9BUF7-2.
As for P182L, the “effect of a mutation on the interaction” value is “disrupting interaction strength”.

In the next assay the parent is B4. The settings on record: with TMEM106C.
In the case of G144W, the “effect of a mutation on the interaction” value is given as “disrupting interaction strength”.

The variants in the next assay derive from B5. The settings on record: with ntcp_human SLC10A1, Q14973.
On to G144W, for which the “effect of a mutation on the interaction” value is on record as “with no effect”.

The next assay covers variants of B6. The note with it: with atp23_human ATP23, Q9Y6H3.
Turning to V94D, the “effect of a mutation on the interaction” value is “disrupting interaction strength”.

A further assay covers variants of B7. The settings on record: with blcap_human BLCAP.
Take G144W: the “effect of a mutation on the interaction” value was “with no effect”.

The next assay covers variants of B8. The settings on record: with go45_human BLZF1, Q9H2G9.
Regarding V94D, the “effect of a mutation on the interaction” value is on record as “disrupting interaction strength”.

In the next assay the parent is B9. The settings on record: with FAM174A.
G144W: the “effect of a mutation on the interaction” value is “with no effect”.

In the next assay the parent is B10. The settings on record: with mf14b_human MFSD14B.
As to G144W, the “effect of a mutation on the interaction” value is listed as “with no effect”.

In the next assay the parent is B11. The settings on record: with cog4_human COG4, Q9H9E3.
For V94D, the “effect of a mutation on the interaction” value is on record as “with no effect”.
